Data from patent publication US20210060185.

Experiments:
[1] = tested on: T1, N-His Ana GvpC with ssrA degradation tag (engineered Anabaena flos-aquae GvpC, ClpXP-sensitive)
T1 sequence: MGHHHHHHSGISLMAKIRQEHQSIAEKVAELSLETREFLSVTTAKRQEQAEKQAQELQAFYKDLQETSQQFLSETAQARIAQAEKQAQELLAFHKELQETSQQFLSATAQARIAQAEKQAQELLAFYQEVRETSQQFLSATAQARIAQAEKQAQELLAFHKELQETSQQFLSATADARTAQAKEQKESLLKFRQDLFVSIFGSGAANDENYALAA

WT N-His-Ana-GvpC = tested on: T2, WT N-His-Ana-GvpC
T2 sequence: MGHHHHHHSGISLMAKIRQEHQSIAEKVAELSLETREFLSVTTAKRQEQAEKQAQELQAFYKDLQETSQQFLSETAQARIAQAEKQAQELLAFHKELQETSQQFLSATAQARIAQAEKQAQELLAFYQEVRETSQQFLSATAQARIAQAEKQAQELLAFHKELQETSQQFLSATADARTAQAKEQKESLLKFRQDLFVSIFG

[2] = tested on: dGvpC (Ana GvpC with SG-AANDENYALAA at the C-terminus, encoded in the acoustic sensor gene for ClpXP)

Substance | 50% collapse pressure after ClpXP exposure (FIG. 9D) [1] | degradation on Coomassie-stained SDS-PAGE [1] | hydrostatic collapse midpoint shift (pressurized absorbance spectroscopy) [1] | increase in nonlinear CNR (FIG. 9E) [1] | nonlinear (x-AM) ultrasound contrast enhancement [1] | collapse pressure, ultrasound contrast and SDS-PAGE (WT N-His-Ana-GvpC) | nonlinear CNR with ClpXP induction (FIG. 10F) [2] | nonlinear ultrasound contrast in the mouse colon [2]
ClpXP in the reconstituted cell-free TX-TL system (purified Flag-ClpXdeltaNLinkedHexamer-His6 and ClpP from the pBEST-ClpP plasmid) | a reduction of “50% collapse” pressure from about 476 kPa to about 223 kPa | Gel electrophoresis performed after incubating GVSClpXP with this cell-free extract showed significant degradation of the engineered GvpC, compared to a negative control condition in which the extract was pre-treated with a protease inhibitor | a substantial weakening of the GV shell upon ClpX exposure, with the hydrostatic collapse midpoint shifting by nearly 250 kPa | FIG. 9E shows an 860% increase in CNR | a 17 dB enhancement in the nonlinear contrast produced by GVSClpXP at an acoustic pressure of 477 kPa, in response to ClpXP activity | Control GVs containing wild type GvpC showed no sensitivity to ClpXP | – | –
ClpXP of E. coli Nissle 1917 (native, or ClpX and ClpP cloned from the Nissle genome under the pBAD promoter) | – | – | – | – | – | – | FIG. 10F shows a nonlinear CNR increase from 15.9 to 22.6 | Cells induced to express this enzyme showed enhanced nonlinear contrast compared to cells not expressing ClpXP
